For this series, the system named is Escherichia coli TOP10. The series is described as follows: shrunken log2 fold change of peptide-encoding DNA abundance (4.5 h post-induction vs induction); higher = less antimicrobial activity (less host growth inhibition). The settings on record: time post-induction: 4.5 h; library: site-saturation at positions 5, 18, 19, 20.
As for RRIRWRPPRLPRPRPRPNIVPRP, the “shrunken log2 fold change” value is -0.112. As for RRIRNRPPRLPRPRPRPSEEPRP, the “shrunken log2 fold change” value was determined as 0.0717.

In the case of RRIRNRPPRLPRPRPRPWWTPRP, the “shrunken log2 fold change” value was -0.129.

As to RRIRPRPPRLPRPRPRPTEGPRP, the “shrunken log2 fold change” value is -0.0468. As to RRIRIRPPRLPRPRPRPGWKPRP, the “shrunken log2 fold change” value is -0.0134. For the sequence RRIRSRPPRLPRPRPRPYKQPRP, the “shrunken log2 fold change” value was -0.62. For RRIRHRPPRLPRPRPRPVCFPRP, the “shrunken log2 fold change” value was -0.0341. Take RRIRARPPRLPRPRPRPTMWPRP: the “shrunken log2 fold change” value is 0.516.

In the case of RRIRARPPRLPRPRPRPSASPRP, the “shrunken log2 fold change” value was 0.167. For the sequence RRIRERPPRLPRPRPRPDKKPRP, the “shrunken log2 fold change” value was determined as 0.0282. Then RRIRPRPPRLPRPRPRPKFAPRP, with 0.409; and RRIRRRPPRLPRPRPRPDHDPRP, with 0.335.

As for RRIRGRPPRLPRPRPRPPCQPRP, the “shrunken log2 fold change” value turned out to be 0.283. As for RRIRFRPPRLPRPRPRPASRPRP, the “shrunken log2 fold change” value was 0.128.

On to RRIRLRPPRLPRPRPRPIFSPRP, for which the “shrunken log2 fold change” value was -0.182.

As to RRIRNRPPRLPRPRPRPGAGPRP, the “shrunken log2 fold change” value turned out to be 0.234. Next, RRIRERPPRLPRPRPRPLMRPRP: 0.839. Turning to RRIRERPPRLPRPRPRPADFPRP, the “shrunken log2 fold change” value is 0.0432. For RRIRFRPPRLPRPRPRPSDGPRP, the “shrunken log2 fold change” value was -0.391. As for RRIRSRPPRLPRPRPRPGHTPRP, the “shrunken log2 fold change” value stood at 0.0898. Consider RRIRYRPPRLPRPRPRPTRIPRP, for which the “shrunken log2 fold change” value is -0.0491. Next, RRIRVRPPRLPRPRPRPHDEPRP: 0.0655; RRIRARPPRLPRPRPRPDHNPRP: -0.154; RRIRLRPPRLPRPRPRPNKTPRP: 0.0829. For RRIRDRPPRLPRPRPRPALQPRP, the “shrunken log2 fold change” value is 0.671. Take RRIRERPPRLPRPRPRPQFVPRP: the “shrunken log2 fold change” value was -0.312. Turning to RRIRPRPPRLPRPRPRPMCLPRP, the “shrunken log2 fold change” value was -0.0489. Regarding RRIRQRPPRLPRPRPRPRKVPRP, the “shrunken log2 fold change” value was -0.00271.

Turning to RRIRFRPPRLPRPRPRPDFRPRP, the “shrunken log2 fold change” value came to 0.00564. In the case of RRIRMRPPRLPRPRPRPTWNPRP, the “shrunken log2 fold change” value was 0.188. Take RRIRVRPPRLPRPRPRPKRRPRP: the “shrunken log2 fold change” value was -0.0117. On to RRIRVRPPRLPRPRPRPNGCPRP, for which the “shrunken log2 fold change” value was determined as 0.0454.

On to RRIRYRPPRLPRPRPRPEHLPRP, for which the “shrunken log2 fold change” value was -0.357. For RRIRNRPPRLPRPRPRPTKDPRP, the “shrunken log2 fold change” value is -0.197.

For RRIRWRPPRLPRPRPRPNVRPRP, the “shrunken log2 fold change” value worked out at 0.057. As for RRIRCRPPRLPRPRPRPEMVPRP, the “shrunken log2 fold change” value is -0.0828.

Take RRIRYRPPRLPRPRPRPEGGPRP: the “shrunken log2 fold change” value stood at 0.0214.

Turning to RRIRNRPPRLPRPRPRPSWIPRP, the “shrunken log2 fold change” value is -0.425. Regarding RRIRDRPPRLPRPRPRPYWMPRP, the “shrunken log2 fold change” value was -0.541. Consider RRIRCRPPRLPRPRPRPAFVPRP, for which the “shrunken log2 fold change” value came out at 0.179. Take RRIRRRPPRLPRPRPRPINLPRP: the “shrunken log2 fold change” value was -0.00491. Next, RRIRSRPPRLPRPRPRPVWAPRP: 0.67; RRIRSRPPRLPRPRPRPLCHPRP: -0.157.

With RRIRHRPPRLPRPRPRPRNFPRP, the “shrunken log2 fold change” value turned out to be 0.134. Regarding RRIRWRPPRLPRPRPRPTKPPRP, the “shrunken log2 fold change” value stood at 0.184. With RRIRQRPPRLPRPRPRPQLPPRP, the “shrunken log2 fold change” value is -0.23. Turning to RRIRLRPPRLPRPRPRPTICPRP, the “shrunken log2 fold change” value is -0.176. For the sequence RRIRIRPPRLPRPRPRPVVCPRP, the “shrunken log2 fold change” value is -0.000979. RRIRLRPPRLPRPRPRPAPVPRP: the “shrunken log2 fold change” value turned out to be 0.23.

Take RRIRPRPPRLPRPRPRPMWGPRP: the “shrunken log2 fold change” value is 0.0327. As for RRIRQRPPRLPRPRPRPFNHPRP, the “shrunken log2 fold change” value came to 0.0419. As to RRIRLRPPRLPRPRPRPQGFPRP, the “shrunken log2 fold change” value was -0.0528. Next, RRIRKRPPRLPRPRPRPPCIPRP: -0.141; RRIRHRPPRLPRPRPRPHCPPRP: -0.207; RRIRIRPPRLPRPRPRPSELPRP: -0.186.

Consider RRIRWRPPRLPRPRPRPTKGPRP, for which the “shrunken log2 fold change” value came out at 0.469. RRIRIRPPRLPRPRPRPCFEPRP: the “shrunken log2 fold change” value is -0.626. In the case of RRIRVRPPRLPRPRPRPKNWPRP, the “shrunken log2 fold change” value is 0.185. As to RRIRSRPPRLPRPRPRPRGAPRP, the “shrunken log2 fold change” value was determined as 0.737. With RRIRKRPPRLPRPRPRPEDNPRP, the “shrunken log2 fold change” value was 0.749. Take RRIRNRPPRLPRPRPRPYLGPRP: the “shrunken log2 fold change” value is -0.21. As to RRIRLRPPRLPRPRPRPEMGPRP, the “shrunken log2 fold change” value worked out at 0.144. For the sequence RRIRYRPPRLPRPRPRPVHEPRP, the “shrunken log2 fold change” value came out at 0.0155. As to RRIRCRPPRLPRPRPRPQDNPRP, the “shrunken log2 fold change” value is -0.285. As for RRIRLRPPRLPRPRPRPSWMPRP, the “shrunken log2 fold change” value was -0.167. As to RRIRYRPPRLPRPRPRPISNPRP, the “shrunken log2 fold change” value was -0.191. Next, RRIRERPPRLPRPRPRPFVLPRP: -0.358; RRIRLRPPRLPRPRPRPECRPRP: 2.41. Take RRIRARPPRLPRPRPRPYIYPRP: the “shrunken log2 fold change” value is -0.346. For the sequence RRIRTRPPRLPRPRPRPEKCPRP, the “shrunken log2 fold change” value was found to be 0.0324.

Regarding RRIRWRPPRLPRPRPRPRDIPRP, the “shrunken log2 fold change” value is -0.244. For the sequence RRIRIRPPRLPRPRPRPLSEPRP, the “shrunken log2 fold change” value was -0.0382. Turning to RRIRRRPPRLPRPRPRPNCHPRP, the “shrunken log2 fold change” value is -0.0432.

As to RRIRCRPPRLPRPRPRPHRVPRP, the “shrunken log2 fold change” value stood at 0.135. Next, RRIRARPPRLPRPRPRPQDRPRP: -0.139. RRIRRRPPRLPRPRPRPACVPRP: the “shrunken log2 fold change” value was 0.451. Consider RRIRVRPPRLPRPRPRPLQWPRP, for which the “shrunken log2 fold change” value came out at 0.209. For the sequence RRIRARPPRLPRPRPRPWDYPRP, the “shrunken log2 fold change” value is 0.00145. Regarding RRIRFRPPRLPRPRPRPEASPRP, the “shrunken log2 fold change” value was 0.0218. Next, RRIRGRPPRLPRPRPRPQWKPRP: 0.113. For the sequence RRIRLRPPRLPRPRPRPGYYPRP, the “shrunken log2 fold change” value was -0.166. On to RRIRSRPPRLPRPRPRPSFTPRP, for which the “shrunken log2 fold change” value is -0.524.

For RRIRTRPPRLPRPRPRPLMDPRP, the “shrunken log2 fold change” value was -0.0405.

As to RRIRPRPPRLPRPRPRPGAEPRP, the “shrunken log2 fold change” value was found to be 0.798. RRIRKRPPRLPRPRPRPDMVPRP: the “shrunken log2 fold change” value is -0.00254.

On to RRIRDRPPRLPRPRPRPQKWPRP, for which the “shrunken log2 fold change” value came out at 0.15. Consider RRIRGRPPRLPRPRPRPVVWPRP, for which the “shrunken log2 fold change” value came out at 1.26. On to RRIRNRPPRLPRPRPRPQAHPRP, for which the “shrunken log2 fold change” value was -0.163. As to RRIRGRPPRLPRPRPRPTLAPRP, the “shrunken log2 fold change” value was 1.27. Next, RRIRMRPPRLPRPRPRPESMPRP: 2.6. Turning to RRIRMRPPRLPRPRPRPIMWPRP, the “shrunken log2 fold change” value is -0.042. Take RRIRCRPPRLPRPRPRPHRCPRP: the “shrunken log2 fold change” value is -0.128. For the sequence RRIRRRPPRLPRPRPRPGKYPRP, the “shrunken log2 fold change” value was -0.307. With RRIRSRPPRLPRPRPRPETWPRP, the “shrunken log2 fold change” value is -0.0382.

In the case of RRIRVRPPRLPRPRPRPFVYPRP, the “shrunken log2 fold change” value is -0.439. Regarding RRIRGRPPRLPRPRPRPLHRPRP, the “shrunken log2 fold change” value was 0.187. Then RRIRERPPRLPRPRPRPYCPPRP, with -1.59; and RRIRDRPPRLPRPRPRPSNMPRP, with -0.0872; and RRIRQRPPRLPRPRPRPTYCPRP, with -0.0981. In the case of RRIRIRPPRLPRPRPRPCMMPRP, the “shrunken log2 fold change” value is -0.654. RRIRQRPPRLPRPRPRPIFFPRP: the “shrunken log2 fold change” value was -0.0319.

For the sequence RRIRCRPPRLPRPRPRPHSLPRP, the “shrunken log2 fold change” value was -0.493. As for RRIRTRPPRLPRPRPRPEPYPRP, the “shrunken log2 fold change” value was 0.0261.

For the sequence RRIRTRPPRLPRPRPRPFFYPRP, the “shrunken log2 fold change” value is -0.345. For the sequence RRIRIRPPRLPRPRPRPYDCPRP, the “shrunken log2 fold change” value turned out to be 0.0019. Turning to RRIRNRPPRLPRPRPRPKSFPRP, the “shrunken log2 fold change” value is -0.00133. Then RRIRQRPPRLPRPRPRPYLYPRP, with -0.838; and RRIRDRPPRLPRPRPRPDPYPRP, with 0.00859; and RRIRIRPPRLPRPRPRPRYIPRP, with -0.242. For the sequence RRIRQRPPRLPRPRPRPKIIPRP, the “shrunken log2 fold change” value is -0.367. In the case of RRIRMRPPRLPRPRPRPYMYPRP, the “shrunken log2 fold change” value amounted to 0.0981. Regarding RRIRARPPRLPRPRPRPWSTPRP, the “shrunken log2 fold change” value came out at 0.0839.

For RRIRPRPPRLPRPRPRPIFVPRP, the “shrunken log2 fold change” value was -0.197. As for RRIRARPPRLPRPRPRPARWPRP, the “shrunken log2 fold change” value was found to be 0.95. RRIRVRPPRLPRPRPRPEMKPRP: the “shrunken log2 fold change” value is -0.184. As to RRIRTRPPRLPRPRPRPWRWPRP, the “shrunken log2 fold change” value is 0.554. For the sequence RRIRNRPPRLPRPRPRPAQRPRP, the “shrunken log2 fold change” value was -0.0476. In the case of RRIRLRPPRLPRPRPRPEWIPRP, the “shrunken log2 fold change” value turned out to be 0.00477.

For RRIRMRPPRLPRPRPRPVWWPRP, the “shrunken log2 fold change” value was -0.0717.

Consider RRIRRRPPRLPRPRPRPTVVPRP, for which the “shrunken log2 fold change” value was found to be 0.0199.

In the case of RRIRSRPPRLPRPRPRPIIIPRP, the “shrunken log2 fold change” value was -0.159. For the sequence RRIRTRPPRLPRPRPRPGWCPRP, the “shrunken log2 fold change” value stood at 1.42.

On to RRIRRRPPRLPRPRPRPVAQPRP, for which the “shrunken log2 fold change” value stood at 0.324. Regarding RRIRTRPPRLPRPRPRPKQLPRP, the “shrunken log2 fold change” value was determined as 0.23.

On to RRIRQRPPRLPRPRPRPQPKPRP, for which the “shrunken log2 fold change” value was found to be 0.0658.

Source of the values: the supplement of paper PMC9112550, “Optimization of the antimicrobial peptide Bac7 by deep mutational scanning” (BMC Biology, 2022).
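Further: peptides expressed intracellularly from a pBAD plasmid library in pooled LB shake-flask culture, induced with 0.3% L-arabinose, DNA abundance read by NGS, three biological replicates, DESeq2 with apeglm shrinkage.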
